A short description of this data set: yeast display, Sf9 membrane polyspecificity reagent, FACS + sequencing; frameworks hold sequencing errors. The method, boiled down: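 Galactose-induced (36–48 hours) yeast carrying a synthetic nanobody display library were exposed to 10% biotinylated, detergent-solubilized Sf9 membrane reagent at 4 °C for 1 hour. FACS followed streptavidin microbead enrichment, using low and high (top ~1%) gates for expression (anti-HA) and reagent binding (streptavidin). Colony PCR, MiSeq 2 × 250 sequencing and CDR-length filtering followed. Labels for polyreactivity reflect the gate of origin.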
Take “QVQLVESGGGLVQAGGSLRLSCAASGITLFGYAMGWYRQAPGKERELVAGISRRGGSTYYADSVKGRFTISRDNAKNTVYLQMNSLKPEDTAVYYCAAVYVQPPATAQHYYYWGQGTQVTVSS”: the “polyreactivity (PSR sort gate)” value was “high polyreactivity”.

On to “QVQLVESGGGLVQAGGSLRLSCAASGITLFYYAMGWYRQAPGKERELVAAISWSGGSTYYADSVKGRFTISRDNAKNTDDLQMNSLKPEDTAVYYCNRVSRAPFDYWGQATQVTVSS”, for which the “polyreactivity (PSR sort gate)” value is “high polyreactivity”.

On to “QVQLVESGGGLVQAGGSLRLSCAASGITLHEYVMGWYRQAPGKERELVAAISRRGDSTYYADSVKGRFTISRDNAKNTVYLQMNSLKPEDTAVYYCAARWYWYWSSWDYYSWGQGTQVTVSS”, for which the “polyreactivity (PSR sort gate)” value is recorded as “low polyreactivity”.

Regarding “QVQLVESGGGLVQAGGSLRLSCAASGITLKRYAMGWYRQAPGKERELVAAITGRGGGTNYADSVKGRFTISRDNAKNTVYLQMNSLKPEDTAVYYCTAATYGDYSNLGYGYWGQGTQVTVSS”, the “polyreactivity (PSR sort gate)” value is reported as “high polyreactivity”.

Take “QVQLVESGGGLVQAGGSLRLSCAASGITLNRNAMGWYRQAPGKERELVAAISSGGNTYYADSVKGRFSISRDNAKNTVYLQMNSLKPEDTEVYYCAARQVQAPRSIGFYFWGQGTQVTVSS”: the “polyreactivity (PSR sort gate)” value was “high polyreactivity”.

“QVQLVESGGGLVQAGGSLRLSCAASGITLRRNAMGWYRQAPGKERELVARISTTGGSTYYADSVKGRFTISRDNAKNTVYLQMNSLKPEDTAVYYCAARAPLGFWHYDYWGQGTQVTVSS”: the “polyreactivity (PSR sort gate)” value was “high polyreactivity”.

As to “QVQLVESGGGLVQAGGSLRLSCAASGITLSNYAMGWYRQAPVKEREFVAALTRSGDSTYYADSVKGRFTISRDNAQNTVYLQMNSLKPEDTAVYYCPAEEHRYTEVYPTSTTDEYDYRGQGTQVTVSS”, the “polyreactivity (PSR sort gate)” value is reported as “low polyreactivity”.

As to “QVQLVESGGGLVQAGGSLRLSCAASGITLSYNDRGWYRQAHGKEREFVAAITGGGSTYYADSVKGRFTISRDNAKNTVYLQMNSLKPEDTEVYYCAAERWYAWTVLYTVSYGYWGQGTQVTVSS”, the “polyreactivity (PSR sort gate)” value is “high polyreactivity”.

Regarding “QVQLVESGGGLVQAGGSLRLSCAASGITLTRYAMGWYRQAPGKERELVAAISTGGGSTYYADSVKGRFTISRDNAKNTVYLQMNSLKPEDTAVYYCAARIRFARGYPITRTYDYWGQGTQVTVSS”, the “polyreactivity (PSR sort gate)” value is “high polyreactivity”.

In the case of “QVQLVESGGGLVQAGGSLRLSCAASGITLVTYAMGWYRQAPGKERELVAAISRSGGRTYYADSVKGRFTISRDNAKNTVDLQMNSLKPEDTAVYYCATRYHVGKDLYGYWGQGTQVTVSS”, the “polyreactivity (PSR sort gate)” value was “high polyreactivity”.

Regarding “QVQLVESGGGLVQAGGSLRLSCAASGITLYGNAMGWYRQAPGKERELVAAITGRGGSTYYADSVKGRFTISRDNAKNTVYLQMNSLKPEDTAVYYCNKAQSRSQLYGYWGQGTQVTVSS”, the “polyreactivity (PSR sort gate)” value is reported as “high polyreactivity”.

Regarding “QVQLVESGGGLVQAGGSLRLSCAASGITLYRYAMGWYRPAPGKERELVADISSGGGTTYYADSVKGRFTISRDNAKNTVSLQMNSLKPEDTALYYCAADYGFRYPLYDYWGQGTQVTVSS”, the “polyreactivity (PSR sort gate)” value is reported as “low polyreactivity”.

For the sequence “QVQLVESGGGLVQAGGSLRLSCAASGITLYRYVMGWYRQAPGKERELVADISGRGTSTYYADSVKGRFTISRDNAKNTVYLQMNSLKPEDTAVYYCNAEYTKTGAQREQSFLTRRGPGYDYWGQVTQVTVSS”, the “polyreactivity (PSR sort gate)” value is “low polyreactivity”.

Consider “QVQLVESGGGLVQAGGSLRLSCAASGITLYYYAMGWYRQAPGKERELVAAISTSGGTTYYADSVKGRFTISRDNAKYTVYLQMNSLKPEDTAVYYCAARRRAFGSTYNYWGQGTQVTVSS”, for which the “polyreactivity (PSR sort gate)” value was “high polyreactivity”.

For “QVQLVESGGGLVQAGGSLRLSCAASGITQYGYAMGWYRQAPGKEREFVAAISRSGDRTYYADSVKGRYTISRDNAKNTVYLQLNSLKPEDTAVYYCNAWRYDYWGQGTQVTVSS”, the “polyreactivity (PSR sort gate)” value is given as “high polyreactivity”.

For “QVQLVESGGGLVQAGGSLRLSCAASGITSRYYAMGWYRQAPGKERELVAAITSDGRTNYADSVKGRFTISRDNAKNTVYLQMNSLKPEETAVYYCAVARYPYRYDYWGQGTQVTVSS”, the “polyreactivity (PSR sort gate)” value is “high polyreactivity”.

Turning to “QVQLVESGGGLVQAGGSLRLSCAASGITSSYAMGWYRQAPGKERELVAAISRGGSTYYADSVKGRFTISRDTAKNTVYLQMNSLKPEDTAVYYCNKRRYPYGWGQGTQVTVSS”, the “polyreactivity (PSR sort gate)” value is “high polyreactivity”.

With “QVQLVESGGGLVQAGGSLRLSCAASGITYFEYAMGWYRQATGKETELVAGIRFSGSTTYYADSVKGRFTISRDNAKNTVYLQMNSLKPEDTAVYYCNVDYYSGLYDYDSWGQGTQVTVSS”, the “polyreactivity (PSR sort gate)” value is recorded as “low polyreactivity”.

“QVQLVESGGGLVQAGGSLRLSCAASGITYGYNTMGWYRQAPGKERELVADISRSGGRTYYADSVKARFTISRDNAKNTVYLQMNSLKPEDTAVYYCAAVSNSGHYYYWGQGTQVTVSS”: the “polyreactivity (PSR sort gate)” value is “high polyreactivity”.

“QVQLVESGGGLVQAGGSLRLSCAASGITYSYYAMGWYRQAPGKEREFVAAISRTGTSTYYADSVKGRFTISRDNAKNTVYLQMNSLNPEDTADYFCAAVPRHPYHDKYDYWGQGTQVTVSS”: the “polyreactivity (PSR sort gate)” value is given as “high polyreactivity”.

With “QVQLVESGGGLVQAGGSLRLSCAASGIWNMGWYRQAPGKERELVAAISWSGASTYYADSVKGRFTISRDNAKNTVYLQMNSLKPEDTAVYYCALGFWHTYGYWGQGTQVTVSS”, the “polyreactivity (PSR sort gate)” value is on record as “high polyreactivity”.

With “QVQLVESGGGLVQAGGSLRLSCAASGLFFYAYSMGWYRQAPAKERELVAAISGSGGNTYYADSVKGRFTISRDNAKNSVYLQMNSLKQEDTAVYYCAADYTAAYPDSMYYWGQGTQVTVSS”, the “polyreactivity (PSR sort gate)” value is “low polyreactivity”.

On to “QVQLVESGGGLVQAGGSLRLSCAASGLIFAEYTMGWYRQAPGKERELVAAISWNGGSTYYADSVKGRFTISRDNAKNTVYLQMNSLKPEDTAVYYCAARYKRVKWYRYEYWGQGTQVTVSS”, for which the “polyreactivity (PSR sort gate)” value is “high polyreactivity”.

As to “QVQLVESGGGLVQAGGSLRLSCAASGLIFAFYAMGWYRQAPVKERELVASIDKSGGSTYADSVKGRFTISRDNAKNTVYLQMNSLKQEDTAVYYCAADYSLIDLFYWGQGTQVTVSS”, the “polyreactivity (PSR sort gate)” value is on record as “low polyreactivity”.

For “QVQLVESGGGLVQAGGSLRLSCAASGLIFAGYAMGWYRQAPGKERELVAAITWRGGRTYADSVKGRFTISRDNAKNTVYLQMNSLKPEDTAVFYCAVRRWGTSFVEDDYWGQGTQVTVSS”, the “polyreactivity (PSR sort gate)” value is “low polyreactivity”.

For “QVQLVESGGGLVQAGGSLRLSCAASGLIFASYAMGWYRQAPGKERELVAAISWSGGSTYYADSVKGRFTISRDNAKNTVYLQMNSLKPEDTAVYYCAARKLFIPKYYYWGQGTQVTVSS”, the “polyreactivity (PSR sort gate)” value is reported as “high polyreactivity”.

For the sequence “QVQLVESGGGLVQAGGSLRLSCAASGLIFATYTMGWYRQAPGKERELVAAITWSGGRTYYADSVKGRFTISRDNAKNTVYLQMNSLKPEDTAVYYCAADPSYALGYDYWGQGTQVTVSS”, the “polyreactivity (PSR sort gate)” value is “high polyreactivity”.

In the case of “QVQLVESGGGLVQAGGSLRLSCAASGLIFAYNTMGWYRQAPGKERELVAGITSGGSTYYADSVKGRFTISRDNAKNTVYLQMNSLKPEDTAVYYCAAAYRTGSVSFGYWGQGTQVTVSS”, the “polyreactivity (PSR sort gate)” value was “high polyreactivity”.

“QVQLVESGGGLVQAGGSLRLSCAASGLIFDGNAMGWYRPAPGKERELVADITGSSVRTYYADSVKGRFTISRDNAKNTVSLQMNSLIPEDTAVYYCAATYGYLYTGLSRYDYWGQGTQVTVSS”: the “polyreactivity (PSR sort gate)” value is “low polyreactivity”.

Regarding “QVQLVESGGGLVQAGGSLRLSCAASGLIFDPNTMGWYRQAPGKERELVAAISSGGDTNYADSVKGRFTISRDNAKNTVYLQMNSLKPEDTAVYYCATDIRFHDPSEYEGVDFEFWGQGTQVTVSS”, the “polyreactivity (PSR sort gate)” value is “low polyreactivity”.

With “QVQLVESGGGLVQAGGSLRLSCAASGLIFDSYDMGGSRQAPGKERELVAAIRRNGGSTYYADSLKGRFTISRDNAKNTVYLQMNSLIPEDTEVYYCAVDNSGYSGVYWVKMDYWGQGTQVTVSS”, the “polyreactivity (PSR sort gate)” value is “low polyreactivity”.

Regarding “QVQLVESGGGLVQAGGSLRLSCAASGLIFDTNAMGWYRQAPGKERELVAAISLDGGSTYYADSVKGRFTISRDNAKNTVYLQMNSLKPEDTAVYYCNADYYANSITYDSWGQGTQVTVSS”, the “polyreactivity (PSR sort gate)” value is “low polyreactivity”.

Consider “QVQLVESGGGLVQAGGSLRLSCAASGLIFDTYAMGWYRQAPGKERELVADITWSGGSTYYADSVKGRFTISRDNAKNTVYLQMNSLKPEDTAVYYCAADSVSLFYWDQRYPDEYDYWGQGTQVTVSS”, for which the “polyreactivity (PSR sort gate)” value was “low polyreactivity”.

Regarding “QVQLVESGGGLVQAGGSLRLSCAASGLIFESYVMGWYRQAPGKERELVAAIRSSGGSTYYADSVKGRFTISRDNAKNTVYLQMNSLKPEVTAVYYCSVKGYGEYDYWGQGTQVTVSS”, the “polyreactivity (PSR sort gate)” value is recorded as “low polyreactivity”.

Take “QVQLVESGGGLVQAGGSLRLSCAASGLIFEYYAMGWYRQAPGKERELGAAISGSGGSTYYADSVKGRFTISRDNAKNTVSLQMNSRKPEDTAVDYCNVVGYRWSEFDYWGQGTQVTVSS”: the “polyreactivity (PSR sort gate)” value is given as “low polyreactivity”.

On to “QVQLVESGGGLVQAGGSLRLSCAASGLIFFHNGMGWYRQAPGKEREFVAVISSSGGSTYYADSVKGRFTISRDNAKNTVYLQMNSLKPEDTAVYYCAARDYSRRYGYWGQGTQVTVSS”, for which the “polyreactivity (PSR sort gate)” value is “high polyreactivity”.

In the case of “QVQLVESGGGLVQAGGSLRLSCAASGLIFFTYAMGWYRHAPGKERELVATISRGGRTKYADSVKGRFTISRDNAKNTVYLQMNSLKPEDTAVYYCAAYLSRSYYAYDYWGQGTQVTVSS”, the “polyreactivity (PSR sort gate)” value is “high polyreactivity”.

For “QVQLVESGGGLVQAGGSLRLSCAASGLIFFYYPMGWYRQAPGKEWEMVAAIRTNYADSVKGRFTISRDNAKNTVDLQMYSLKREDTADYYCAAESSQTPTSAFDYWGQGTQVTVSS”, the “polyreactivity (PSR sort gate)” value is on record as “low polyreactivity”.

“QVQLVESGGGLVQAGGSLRLSCAASGLIFGPYAMGWYRQAPGKERELDAAITSSGGSTYNADSVKGRFTISRDNAKKSVYLQMNSLKPEDTAVYYCAARGSPRYYARYNYWGQGTQVTVSS”: the “polyreactivity (PSR sort gate)” value was “low polyreactivity”.

Regarding “QVQLVESGGGLVQAGGSLRLSCAASGLIFGRNAMGWYRQAPGKERELVAAITSGGSTYYADSVKGRFTISRDNAKNTVYLQMNSLKPEDTAVYYCFVDYYPYDYWGQGTQVTVSS”, the “polyreactivity (PSR sort gate)” value is on record as “low polyreactivity”.

On to “QVQLVESGGGLVQAGGSLRLSCAASGLIFGRYAMGWYRQAPGKERELVAAINRNGGSTYYADSVKGRFTISRDNAKNTVYLQMNSLKPEDTAVYYCAAQYRSSRGHYDYWGQGTQVTVSS”, for which the “polyreactivity (PSR sort gate)” value is “high polyreactivity”.

The record behind these values is the nanobody polyreactivity screen of Harvey et al. (2022).
